Results from article PMC8671394, “Paracrine FGFs target skeletal muscle to exert potent anti-hyperglycemic effects” (Nature Communications, 2021).

T1: soluble extracellular D2-D3 region of human FGFR1c (Asp142-Arg365) (human, UniProt P11362 142-365)
T1 chain: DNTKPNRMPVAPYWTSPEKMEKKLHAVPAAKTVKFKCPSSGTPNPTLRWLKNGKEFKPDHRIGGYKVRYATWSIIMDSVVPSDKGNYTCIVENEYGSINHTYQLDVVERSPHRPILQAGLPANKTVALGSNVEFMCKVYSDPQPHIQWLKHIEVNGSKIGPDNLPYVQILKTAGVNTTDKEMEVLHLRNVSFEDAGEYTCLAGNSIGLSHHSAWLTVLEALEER

T2: soluble extracellular D2-D3 region of human FGFR1c (Asp142-Arg365) (human, UniProt P11362 142-365)
T2 construct: fibroblast growth factor receptor 1, 'c' splice isoform, human, extracellular D2-D3 region, residues Asp142-Arg365; also called FGFR1c ectodomain; FGFR1c isoform; source: E. coli (BL21), purified
T2 sequence (looked up): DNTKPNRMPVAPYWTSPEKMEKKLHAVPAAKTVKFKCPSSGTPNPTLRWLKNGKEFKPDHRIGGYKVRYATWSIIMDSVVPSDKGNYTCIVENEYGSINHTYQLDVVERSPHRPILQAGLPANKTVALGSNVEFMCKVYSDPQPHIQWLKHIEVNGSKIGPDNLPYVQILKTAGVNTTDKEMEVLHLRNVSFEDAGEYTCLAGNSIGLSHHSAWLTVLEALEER


Legend:
[1] = biological target: T1, soluble extracellular D2-D3 region of …; test: SPR
[2] = biological target: T2, soluble extracellular D2-D3 region of …; test: SPR; BIAcore T200; HBS-EP buffer (10 mM HEPES-NaOH, pH 7.4, 150 mM NaCl, 3 mM EDTA, 0.005% Surfactant P20); which partner was immobilised is not told in the main text; details: both partners purified

Row | Kd [1] [nM] | binding result [2] | Binder
1 | 716 | binds | N-terminally truncated human FGF4 (rFGF4) (Ala67-Leu206) (domain or fragment, UniProt P08620 67-206, looked up, fibroblast growth factor 4, human, engineered N-terminal truncation, residues Ala67-Leu206; also called truncated rFGF4; source: E. coli (BL21), purified) AAVQSGAGDYLLGIKRLRRLYCNVGIGFHLQALPDGRIGGAHADTRDSLLELSPVERGVVSIFGVASRFFVAMSSKGKLYGSPFFTDECTFKEILLPNNYNAYESYKYPGMFIALSKNGKTKKGNRVSPTMKVTHFLPRL
2 | 464 | binds | full length mature form human FGF4 (mFGF4) (Ala31-Leu206) (ligand, UniProt P08620 31-206, looked up, fibroblast growth factor 4, human, full length mature form, residues Ala31-Leu206; also called wild-type parent molecule; source: E. coli (BL21), purified) APTAPNGTLEAELERRWESLVALSLARLPVAAQPKEAAVQSGAGDYLLGIKRLRRLYCNVGIGFHLQALPDGRIGGAHADTRDSLLELSPVERGVVSIFGVASRFFVAMSSKGKLYGSPFFTDECTFKEILLPNNYNAYESYKYPGMFIALSKNGKTKKGNRVSPTMKVTHFLPRL
